What was measured:
[1] = molecular target: BmdC (Thermoactinomyces vulgaris F-5595); assay: SEC; size-exclusion chromatography of BmdC alone (Supplementary Fig. 2e)
[2] = molecular target: BmdB (Thermoactinomyces vulgaris F-5595); assay: SEC; full-length BmdB and BmdC at 1–8 μM mixed (increasing BmdC, fixed BmdB), Superdex200 Increase 10/300, 50 mM Tris-HCl pH 7.5, 200 mM NaCl, 1 mM DTT
[3] = molecular target: BmdB (Thermoactinomyces vulgaris F-5595)

Q: With BmdC (enzyme) as the substance, how does the stoichiometry N [1] read?
A: 2

Q: And the stoichiometry N (BmdB molecules per BmdC dimer) [2]?
A: 2

Q: BmdC_D225R (enzyme) was tested. Which decrease in oxidation to bacillamide D in peptide synthesis assays [3] did it give?
A: 50%
